# Results as given in patent publication US20260055143A1, “HIGH AFFINITY VARIANTS OF SH2 DOMAINS” (Axoiya Inc., priority 2023, published 2026).
# B1: Ptn6_C^wt: wild-type PTN6_C SH2 domain, SEQ ID 59 (protein, listed as Homo sapiens)
# chain: WYHGHMSGGQAETLLQAKGEPWTFLVRESLSQPGDFVLSVLSDQPKAGPGSPLRVTHIKVMCEGGRYTVGGLETFDSLTDLVEHFKKTGIEEASGAFVYLRQPY
# B2: Src^sFes: SEQ ID 167: Src SH2 domain with sFes graft (protein)
# chain: MKIEEHHHHHHSSGKLGLNDIFEAQKIEWHESSGEDLYFQSGTTMDDYKDDDDKGGSDGIQAEEWYFGKITRRESERLLLNAENPRGTFLVREGQSQPDYVLSVSDFDNAKGLNVKHYIIRKLDSGGFYITSRTQFNSLQQLVAYYSKHADGLCHRLTTVCPSR
# B3: Fes^sSrc: SEQ ID 145: Fes SH2 domain with sSrc graft (protein)
# chain: MKIEEHHHHHHSSGKLGLNDIFEAQKIEWHESSGEDLYFQSGTTMDDYKDDDDKGGSEVQKPLHEQLWYHGAIPRAEVAELLVHSGDFLVRESETVKGAYALSVLWDGLPRHFLIQSLDNLYRLEGEGFPSIPLLIDHLLSTQQPLTKKSGVVLHRAVPSR
# B4: wt: unmodified Fes SH2 domain, SEQ ID 21 (protein, listed as Homo sapiens)
# chain: WYHGAIPRAEVAELLVHSGDFLVRESQGKQEYVLSVLWDGLPRHFIIQSLDNLYRLEGEGFPSIPLLIDHLLSTQQPLTKKSGVVLHRAV
# B5: SuperSrc-SH2: SEQ ID 136: high affinity variant of the Src SH2 domain, BC loop SETVKGA (protein)
# chain: MKIEEHHHHHHSSGKLGLNDIFEAQKIEWHESSGEDLYFQSGTTMDDYKDDDDKGGSDSIQAEEWYFGKITRRESERLLLNAENPRGTFLVRESETVKGAYALSVSDFDNAKGLNVKHYLIRKLDSGGFYITSRTQFNSLQQLVAYYSKHADGLCHRLTTVCPSR
# Tests used:
# QGVI{pTyr}SDLNLP = QGVI{pTyr}SDLNLP (Homo sapiens, UniProt P26715); experiment: Competitive ELISA, Ptn6_C variants; type: binding
# Description: (§1) Competitive and non-competitive phage ELISAs were performed as previously described with minor modifications to the protocol. Peptide sequences used for these analyses can be found in Table 4.
# (§2) Streptavidin (50 ng/well in TBS (50 mM Tris-HCl pH 8.0, 150 mM NaCl) was coated onto MAXISORP plates (Thermo Scientific). Phage binding was detected using HRP conjugated anti-M13 secondary antibody (1/2000 dilution, GE Healthcare) in TBS buffer containing 0.05% Tween-20 (TBT buffer). Phage binding was detected using the 3,3′,5,5′-tetramethylbenzidine (TMB) (Thermo Fisher Scientific) chromogenic substrate. Plates were read using a PowerWave XS microplate reader (BioTek).
# (§3) Competitive phage-ELISAs were used to determine binding affinity of SH2 superbinders for their cognate target. ELISAs were performed as previously described, biotinylated and phosphorylated peptides were immobilized on plates at the concentration of 0.2 μM, and available binding sites on streptavidin were blocked by adding 25 μl/well of 50 μM D-biotin in TBS. […] Data were plotted using Prism 6 software (GraphPad Software Inc) and affinity of SH2 domains was inferred from determination of the half maximal inhibition concentration (IC50).
# Peptides listed in Table 5 were used to assay for binding affinity of each corresponding SH2 domain.
# [1] = tested on: pMT peptide (EEPQ{pTyr}EEIPIY (SEQ ID NO: 181)); experiment: Competitive phage ELISA, Src variants; type: binding; settings: IC50-based, fold over Src wt
# Description: as §1, §2, §3
# [2] = molecular target: Ezrin peptide (PPV{pTyr}EPVS (SEQ ID NO: 257)) (Homo sapiens, UniProt P15311); experiment: Competitive phage ELISA, Fes variants; type: binding; settings: IC50-based, fold over Fes wt
# Description: as §1, §2, §3
# [3] = molecular target: T1, ezrin phosphopeptide (PPV{pTyr}EPV (SEQ ID NO: 258)) (Homo sapiens, UniProt P15311); experiment: Fluorescence polarization binding assay of purified Fes-SH2 variants with peptide pEZ
# T1 construct: made in house; host or cells: peptide: chemical (Fmoc) synthesis; SH2 domains: Escherichia coli BL21(DE3)
# From the text: Peptide were synthesized using 9-fluorenylmethoxycarbonyl chemistry with the Prelude peptide synthesizer (Gyros Protein Technologies, Inc., Tucson, AZ) on Rink amide MBHA resin (Novabiochem, London, GB). Each peptide N-terminus was functionalized with biotin through a linker composed of two F-aminocaproic acids (Bachem). N-hydroxysuccinimide-fluorescein was used for N-terminal fluorescein labeling of the synthesized Ezrin pTyr-peptide used in fluorescence polarization tests. All peptides were purified using C-18 reverse phase HPLC (Waters) and their identity was confirmed by mass spectrometry on an Orbitrap Elite (ThermoFisher). Phosphopeptides that were used in the study but not synthesized in house were from GenScript.
# Fluorescence polarization assays were performed as previously described. Briefly, binding measurements were performed in FP buffer (25 mM HEPES pH 7.5, 100 mM NaCl, 1 mM DTT, 0.01 mg/ml BSA, 0.03% BRIJ-35) by mixing in a 96-well plate 25 nM FITC-labeled Ezrin pTyr-peptide with serial dilutions of Fes-SH2 variants ranging from 1 mM to 22 nM. Samples were equilibrated at room temperature for 30 minutes before reading plates on an HTS Multi-Mode Microplate Reader (Synergy Neo) using an excitation filter of 485 nm and an emission filter of 530 nm. Dissociation constants were determined with Prism (GraphPad Software Inc) using a one-site total binding model.
# cancer cell signaling = settings: expression of the autonomous domain; cited from earlier work
molecule,measurement,setting,value
B1,change in affinity,QGVI{pTyr}SDLNLP; with either the sSrc or sFes graft,no improvement in affinity
same,change in binding,QGVI{pTyr}SDLNLP; αA-2-Arg mutation alone,not sufficient to enhance the binding
B2,enhancement of affinity of the domain (times),[1],125
B3,enhancement of affinity of the domain (times),[2],650
B4,IC50,[3]; fluorescence polarization against the ezrin phosphopeptide,1300 nM
same,Fold Change,[3]; fold enhancement in apparent affinity over wt Fes SH2,1
B5,effect on cancer cell signaling,cancer cell signaling,dominant negative effect
